Results published in patent publication CN116715769A (dated 2023).

T1: mouse HVEM (mouse, UniProt Q80WM9)
T1 chain: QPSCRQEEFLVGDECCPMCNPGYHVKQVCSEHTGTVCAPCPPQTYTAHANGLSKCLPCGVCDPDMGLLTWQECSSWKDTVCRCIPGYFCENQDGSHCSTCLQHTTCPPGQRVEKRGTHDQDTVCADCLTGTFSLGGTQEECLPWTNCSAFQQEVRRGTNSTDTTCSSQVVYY

T2: human HVEM (human, UniProt Q92956)
T2 chain: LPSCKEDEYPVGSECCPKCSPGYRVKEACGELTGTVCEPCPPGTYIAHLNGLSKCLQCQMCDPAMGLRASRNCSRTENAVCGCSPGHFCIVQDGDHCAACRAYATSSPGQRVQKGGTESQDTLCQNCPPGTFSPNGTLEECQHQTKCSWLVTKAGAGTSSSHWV


How the values were obtained:
[1] = target: T1, mouse HVEM; test: ELISA
[2] = target: T2, human HVEM; test: SPR

| binding result [1] | Kd [2] [pM] | Binder |
| --- | --- | --- |
| no binding |  | 26C3 (protein) chain 1: QVQLQQPGSELVRPGASVKLSCKASGYTFTSYWMHWVKQRPGQGLEWIGDIYPGSDGTNYDEKFKSKATLTVDTSSSTAY chain 2: DIQMTQTTSSLSASLGDRVTISCRASQDISNSLNWYQQKPDGTVKLLIYYTSRLHSGVPSRFSGSGSGTDYSLTISNLE |
| no binding | 0.705 | 52B7 (protein) chain 1: QVQLKQSGPGLVQPSQSLSITCTVSGFSLTIYGVHWIRQSPGKGLEWLGVIWTGGNTDYNAAFMSRLSITKDNSKSQVFF chain 2: EIVLTQSPALMAASPGEKVTITCSVSSNISSGNLHWYQQKSETSPKPWIYGTSNLASGVPVRFSGSRSGTSYSLTISSME |
| no binding |  | 22G5 (protein) chain 1: EVQLQESGGGLVQPGGSRKLSCAASGFTFSSFGMHWVRQAPEKGLEWVAFISSGSSSIYYADTVKGRFTISRDNPRNTL chain 2: DVVMTQTPLSLPVSLGDQASISCRSSQSLVHSNGNTYFHWYLQKPGQSPKLLIYKVSNRFSGVPDRFSGSGSGTDFTLKI |
